Experiment: yeast display, Sf9 membrane polyspecificity reagent, FACS + sequencing; frameworks hold sequencing errors
Outline: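 In a synthetic yeast display library (Saccharomyces cerevisiae BJ5465), nanobody expression was induced with galactose for 36–48 hours. FACS gates were set low and high (top ~1%) using anti-HA fluorescence for expression and streptavidin fluorescence for binding of the Sf9 membrane reagent. Each polyreactivity label is drawn from the gate of origin.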

Sequence	polyreactivity (PSR sort gate)
QVQLVESGGGLVQAGGSLRLSCAASGSIFYYNTMGWYRQAPGKERELVAAISWSGGSTSYADSVKGRFTISRDNAKNTVYLQMNSLKPEDTAVYYCAAKAVGLGKSWRGDDYWGQGTQVTVSS	low polyreactivity
QVQLVESGGGLVQAGGSLRLSCAASGFILERYAMGWYRQAPGKERELVAAISSVGNTNYADSVKGRFTISRDNAKNTVYFQMNSLKPEDTAVYYCAAEGAFPIYDYWGQGTQVTVSS	low polyreactivity
QVQLVESGGGLVQAGGSLRLSCAASGRIFRIYAMGWYRQAPGKERELVASITWRGGRTYYADSVKGRFTISRDNAKNTVYLQMNSLKPEDTAVYYCAATSSTSYYWGQGTQVTVSS	high polyreactivity
QVQLVESGGGLVQAGGSLRLSCAASGSTFLSNAMGWYRQAPGKERELVAAITTSGTSTFYADSVKGRFTISRDNAKNTVYLQMNSLKPEDTAVYCAKDYLPYLHFVAPSTGDYDYWGQGTQVTVSS	low polyreactivity
QVQLVESGGGLVQAGGSLRLSCAASGRTFIKYAMGWYRQAPGKERELVAAITYSAGSTSYADSVKGRFTISRDNAKNTVYLQMNRLKPEDTAVYYCARRTRSYGYRSDYYYWGQGTQVTVSS	low polyreactivity
QFQLVESGGGLVEAGGSLRLSCAASGFTFSWYVMGWYRPAPGKERELVATITNRGGSTYYADSVKGRFTISRDNAKNTVYIQMKSQKPEDTAVYYCAARKKGSRVGYDYWGEGTQVTVSS	high polyreactivity
QVQLEESGGGLVQAGGSLRLSCAASGIIFQRNDMGWYRQAPGKERELVANIRDGGITYADSVKGRFTISRDNAKNTVYLQMNSLKPEDTAVYYCARDDTSPGYCDQSSNAAYYYWGQGTQVTVSS	low polyreactivity
QVQLVESGGGLVQAGGSLRLSCAASGITFKYYAMGWYRQAPGKERELVAAISRSGGTTYYADSVKGRFTISRDNAKNTVYLQMNSLKPEDTAVYYCNKYTHYYDYDYWGQGTQVTVSS	high polyreactivity
QVLLVESGGGLVQAGGSLRLSCAASGSIFGQYTMGWYRQAPGKERELVAAINSSGDSTFYADSVKGRFTISRDNAKNTVYLQMNSLKPEDTAVYYCAADPYRYYFRAYGWHREGYYWGQGTQVTVSS	low polyreactivity
QVQLVESGGGLVQAGGSLRLSCAASGITFPFNAMGWYRQAPGKERELDAAISSTGSTNYADSVKGRFTISRDNAKNTVYLQMNSLKPEDTAVYYCNKRSNYRRGDGRRHLYWGQGTQVTVSS	low polyreactivity
QVQLVESGGGLVQAGGSLRLSCAASGFTFIQYAMGWYRQAPGKERELVAAITRSGGRTYYADSVKGRFTISRDNAKNTVFLQMNSLKPEDTAVYYCNADRTRGYQRYDYWGQGTQETVSS	high polyreactivity
QVQLVESGGGLVQEGGSLRLSCAASGITFGRYAMGWYRQAPGKERELVAAISWSGGSTYYADSVKGRFTISRDNAKITVYLQMNSLKPEDTAVYSCNARGFPGKFGYWGQGTQVTVSS	high polyreactivity
QVQLVESGGGLLQAGGSISLSCAASGFTISPYAMGWYRQAPAKERELVAVISKSSTRTYYADSVKGRFTITRDNAKNTVYLQMNSLKPEDTAVYYCYAGCNFVSGYYYWGQGTQVTVSS	high polyreactivity
QVQLVESGGGLVQAGGSLRLSCAASGRIFRYYAMGWYRQAPGKERELVAGITIGGSTNYADSVKGRFTISRDNAKNTVYLLMISLKPEDTAVYYCAAVQHDENEYWGQGTQVTVSS	low polyreactivity
HVQLVESGGGFVQAAGSLRLSCAASGSIFAGYAMGWYRQAPGKERELVAAINSSGGSTYYADSVKGRFTISRDNSKNTVYLQMKSLKPEDTAVYDCNRVYKRYYIGGYDYWGQGTQVTVSS	high polyreactivity
QVQLVESGGGLVQAGGSLRLSCAASGSIFKNYAMGWYRQAPGKERELVAAITSGGRTYYADSVKGRFTISRDNAKNTVYLQMNSLKPEDTAVYYCAALGRYGYYYWGQGTQVTVSS	high polyreactivity
QVQLVESGGGLVQAGGSLRLSCAASGRISSSYAMGWYRQAPGKERELVAAIDNSDDTTYYADSVKGRFTISLDNAKNTVYLQMNSLKPEDTAVYSCATLVYSSELGYWGQGTQVTVSS	high polyreactivity
QVQLVESGGGLVQAGGSLSLSCAASGSTFWYYAMGLYRQAPGKERELVAAITRGGNTYYADSVKGRFTISRDNAKNTVYLQMNSLKPEDTAVYYCAAGFYLLGKYDYWGQGTQVTVSS	high polyreactivity
QVQLVESGGALVQAGGSLRLSCAASGRIFVVNAMGWYRQAPGKERELGAAISIRGTRTYYADSVKGRFTISRDNAKNTVYLQMNSLKPEDTAVYYCAADASYTEGMDYWGQGTQVTVSS	high polyreactivity
QVQLVESGGGLVQAGGSLRLSCAASGRTFLFNGMGWYRQAPGKERELVASITRGGSTYADSVKGRFTISRDNAKNTVYLQMNSLKPEDTAVYYCAALTSRTYLWTTRPYDYWGQGTQVTVSS	high polyreactivity
QVLLVESGGGVVQAGGSLRLSCASSGFTYGSYAMGWYRQAPGKERELVAGITRSSGSTYYADSVKGRFTISRDNAKITDYLQMNSLKPEDTAVYYCRQFSVWGYDYWGQGTKVTVSS	high polyreactivity
QVQLVESGGGLVQAGGSLRLSCAASGITFRYYTMGWYRQAPGKERELVAAITTGGSTNYADSVKGRFTISRDNAKNTVYLQMNSLKPEDTAVYYCAATYKYITRGYLYDYWGQGTQVTVSS	high polyreactivity

Sequence	polyreactivity (PSR sort gate)
QVQLVESGGGLVKAGGSLRLSCAASGFIFSLYAMGWYRQAPGKERELVASINRRGTSTFYADSVKGRFTISRDNAKNTVYLQMNSLKPEDTAVYYCNAYPGAAIRSTGRYDYWGQGTQVTVSS	low polyreactivity
QVQLVESGGGLVQAGGSLRLSCAASGSTFKNYVMGWYRQAPGKERELVAAISRSGGRTYYADSVKGRFTISRDNAKNTVYLQMYSLKPEVTAVYYCATPDQVELSSYDYWGEGTQVTVSS	high polyreactivity
QVQLVESGGGLVQAGGSLRLSCAASGSIFLYNTMGWYRQAPGKERELVAAITYSGGSTYYADSVKGRFTISRDYAKNTVYLQMNSLKPEDTAVDYCNARHYSAYYSWGQGTQVTVSS	high polyreactivity
QVQLVESGGGLDQAGGSLRLSCAASGSIYYTAMGWYRQAPGKERELVASISTGDSTDYADSVKGRFTISRDNAKNTVYLQMNSLKPEDTAVYYCAADTRLGYWDDYWGQGTQVTVSS	low polyreactivity
QVQHVESGGGLVQAGGSLRLSCAASGSTFDAYAMGWYRQAPGKERELVAAISWSDTTTYYADSVKGRFTISRDTAKNTVYLQMYSLKPEDTAVSYCADEYYFTDGSYTSDYWGPGTQVTVSS	high polyreactivity
QVHLVESGGGLVQAGGSLRLSCAASGTIFGEYAMGWYRQAPGKERELVARISVSGTGTYYADSVKGRFTISRVNAKNTVYLQMNSLKPEDTAVYYSATRLYTIRWGGVSYDYDYWGQGTQVTVSS	high polyreactivity
QVQLVESGGGLVQAGGSLRLSCAASGLTIFVNAMGCYRQAPGKERELVATISGGGSTYYADSVKGRFTISRDNAKNTVYLQMNSLKPEDTAVYYCNADVLFYTYYTRGRFDFDYWGQGTQVTVSS	low polyreactivity
QVQLVESGGGLVQAGGSLRLSCAASGRTFGEYAMGWYRQAPGKERELVADITNGSRTYYADSVKGRFTISRDNAKNTVYLQMNSLKPEDTAVYYCAADWWKEVDYWGQGTHVTVSS	low polyreactivity
QVQLVESGGGLVQAGGSLRLSCAASGITIVYYTMGWYIQAPGKERELVASITWDGGSTYYADSVKGRFTISRDNAKNTVYLQMNSLKPEDTAVYYCNRDRVSGGKYNYWGQGTQVTVSS	low polyreactivity
QVQLVESGGGLVQAGGSLRLSCAASGSTFRPYAMGWYRQAPGKERELVARITGSGDSTYYADSVKGRFTISRDNAKNTVYLQMNSLKPEDTAVYYCAREFDYSLSGFDYWGQGTQVTVSS	low polyreactivity
QVQLVESGGGLVQAGGSLRLSCAASGGTFVRYAMGWYRQAPGKERELVAAISRSGGSTYYADSVKGRFTISRDNAKNTVYLQMNSLKPEDTAVFYCNKDRQRYGEDYWGQGTQVTVSS	high polyreactivity
QVQLVESGAGLVQAGGSLRLSCAASGLTFEWYAMGWYRPAPGKERELVAAISWNGGSTYYADSVKGRFTISRDNAKNTVYLQMNSLKPEDTAVYYCATSSPRRYYWGQGTQVTVSS	high polyreactivity
QVQLVESGGGLVQAGGSLRLSCAASGSTFYLYAMGWYRQAPGKEREFVAAISWSGGRTYYAHSVKGRFTISRDYAKNTVYLQMNSLKPEDTAVYYCAARRRYTWQYTSYDMGYWGQGTQVTVSS	low polyreactivity
QVQLVESGGGLVQAGGSLRLSCAASGSTFYSYAMGWYRQAPGKERELVAAISWRGGTTYYADSVKGRFTISRDNAKNTVYLQMNSLKPEDTAVYYCNARFYRWRSYGYDYWGQGTQVTVSS	high polyreactivity
QVQLVETGGGLVQAGGSLRLSCAASGSIFEYNGMGWYRQAPGKERELVAAITTTGTTDYADSVKGRFTISRDNAKNTVYLLMNSLKPEDTAVYYCAADYTYYYKGEYDYWGQGTQVTVSS	low polyreactivity
QVQLVESGGGLVQAGGSLRLSCAASGRTFASYAMGWYRQAPAKDRELVAAITSGGSTKYADSVKGRFTISRDNAKNSVYFQMNSLTPEDTAVYYCWRYVFHLSNYYYWGQGTQVTVSS	high polyreactivity
QVQLVESGGGLVQAGGSLRLSCAASGFIFDSYAMGWYRQAPGKERELVATITKGGGRTYYADSVKGRFTISRDNAKNTVYLQMNSLKPEDTAVYYCNARGFSRRKGLDYWGQGTQVTVSS	low polyreactivity
QVQLVESGGGLVQAGGSLRLSCAASGSIFWSYAMGWYRQAPGKERELVASITRSGGSTYYADSVKGRFTISRDNAKNTVYLQMNSLKPEDTAVYYCNARRTTRWGSSKYEYDYWGQGTQVTVSS	high polyreactivity
QVQLVESGGGLVQEGGSLRLSCAASGRISVRYGMGWYRQAPGKERELVATISQSGGSTYYADSVKGRFTISRDNAKNTVYLQMNSLKPEDTAVYYCAAETDYVRHARKYDFWGQGTQVTVAS	low polyreactivity
QVQLVESGGGLVQAGGSLRLSCAASGSIFYRNAMGWYRQAPGKERELVAAISSDGSTNYADSVKGRFTISRDNAKNTVYLQMNSLKPEDTAVSYCAAPWTQILDYWGQGTQVTVSS	low polyreactivity
QVQLVESGGGLVQAGGSRLSCAASGRIFPVYAMGWYIQAPGKERELVAGINSSGDNTYYADSVKGRFTISRDNAKNTVYLQMNSLKPEDTAVYYCAAYYPYYVPYGFDYCGQGTQVTVSS	low polyreactivity

Source: the nanobody polyreactivity screen of Harvey et al. (2022)
